Results published in article PMC12154155.

What was measured:
[1] = target: RsbS (wild type), Listeria monocytogenes (Listeria monocytogenes); assay: cryo-EM structure; stressosomes assembled from purified RsbR, RsbS and RsbT (1:2:5 molar ratio, overnight, 4 °C), purified on Superose 6 in 20 mM Tris-HCl pH 8.5, 250 mM NaCl, 1 mM DTT, 1 mM ADP; 50-150 ug/mL on GO-amino grids; C1, no symmetry imposed; only RsbR and RsbS modelled
[2] = target: RsbS S56A, Listeria monocytogenes (Listeria monocytogenes); assay: as above

| Substance | stoichiometry N [1] | stoichiometry N [2] |
| --- | --- | --- |
| RsbR T209A, Listeria monocytogenes (natural protein) | 3 RsbR to RsbS | – |
| RsbR T209E, Listeria monocytogenes (natural protein) | 1 RsbR to RsbS | – |
| RsbR T175A, Listeria monocytogenes (natural protein) | 2 RsbR to RsbS | – |
| RsbR (wild type), Listeria monocytogenes (from UniProt Q8GD19 1-278) (natural protein) | – | 2 RsbR to RsbS |
